Source: PMC11964753 (Molecules and Cells, 2025)
Several values for one entry are separate records, joined by “and”; a condition that tells them apart may be missing. Identical values can stand only once.

Molecular target: the molecule itself
Experiment: cryo-EM structure

B1: mouse bestrophin 1 with a C-terminal tandem tag of BRIL and 3X Flag (mBEST1-BRIL-3xFLAG) (natural protein, UniProt O88870 1-551, looked up)
chain: MTITYTNKVANARLGSFSSLLLCWRGSIYKLLYGEFLVFIFLYYSIRGLYRMVLSSDQQLLFEKLALYCDSYIQLIPISFVLGFYVTLVVSRWWSQYENLPWPDRLMIQVSSFVEGKDEEGRLLRRTLIRYAILGQVLILRSISTSVYKRFPTLHHLVLAGFMTHGEHKQLQKLGLPHNTFWVPWVWFANLSMKAYLGGRIRDTVLLQSLMNEVCTLRTQCGQLYAYDWISIPLVYTQVVTVAVYSFFLACLIGRQFLNPNKDYPGHEMDLVVPVFTILQFLFYMGWLKVAEQLINPFGEDDDDFETNWIIDRNLQVSLLSVDGMHQNLPPMERDMYWNEAAPQPPYTAASARSRRHSFMGSTFNISLKKEDLELWSKEEADTDKKESGYSSTIGCFLGLQPKNYHLPLKDLKTKLLCSKNPLLEGQCKDANQKNQKDVWKFKGLDFLKCVPRFKRRGSHCGPQAPSSHPTEQSAPSSSDTGDGPSTDYQEICHMKKKTVEFNLNIPESPTEHLQQRRLDQMSTNIQALMKEHAESYPYRDEAGTKPVLYE
- stoichiometry N: 5 and 10
